Experimental data as given in PMC3212559, “Large-Scale Protein-Protein Interaction Analysis in Arabidopsis Mesophyll Protoplasts by Split Firefly Luciferase Complementation” (PLoS ONE, 2011).

Columns and labels:
Assay in all cases: split reporter (BiFC, NanoBiT); SFLC in living Arabidopsis mesophyll protoplasts: Aux/IAA-FLucN or MYB30-FLucN co-expressed with ARFCTD-FLucC or Aux/IAA-FLucC for 6 hr; 10 µg of each construct, 2×10^4 cells, 96-well plate, D-luciferin; relative activity standardised against ARF5CTD-FLucC + IAA28-FLucN
Conditions in all cases: partners not purified
[1] = molecular target: T1, IAA13-FLucC (Arabidopsis, UniProt Q38831 1-247)
T1 construct: Arabidopsis Aux/IAA protein IAA13; also called Aux/IAA-FLucC; source: Arabidopsis mesophyll protoplasts, transfected, in living cells; not shown: FLucC (firefly luciferase aa 394-550)
T1 sequence (looked up): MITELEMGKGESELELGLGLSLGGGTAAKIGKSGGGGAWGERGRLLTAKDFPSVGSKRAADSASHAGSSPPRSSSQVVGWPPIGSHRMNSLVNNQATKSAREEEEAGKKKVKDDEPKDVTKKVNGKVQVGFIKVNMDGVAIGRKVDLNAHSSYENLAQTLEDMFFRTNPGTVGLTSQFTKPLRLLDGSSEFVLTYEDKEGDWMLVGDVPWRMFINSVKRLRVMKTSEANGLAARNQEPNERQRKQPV

[2] = molecular target: T2, IAA14-FLucC (Arabidopsis, UniProt Q38832 1-228)
T2 construct: Arabidopsis Aux/IAA protein IAA14; also called Aux/IAA-FLucC; source: Arabidopsis mesophyll protoplasts, transfected, in living cells; not shown: FLucC (firefly luciferase aa 394-550)
T2 sequence (looked up): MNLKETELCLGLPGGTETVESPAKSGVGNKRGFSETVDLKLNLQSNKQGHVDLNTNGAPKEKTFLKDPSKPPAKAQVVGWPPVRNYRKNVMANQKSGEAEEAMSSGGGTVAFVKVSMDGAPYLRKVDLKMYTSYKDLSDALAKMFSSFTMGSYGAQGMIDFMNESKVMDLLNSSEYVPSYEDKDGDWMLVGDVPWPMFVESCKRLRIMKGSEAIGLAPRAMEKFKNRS

[3] = molecular target: T3, ARF1 C-terminal domain (CTD)-FLucC (Arabidopsis, UniProt Q8L7G0 542-665)
T3 construct: Arabidopsis auxin response factor 1, C-terminal dimerization domain (CTD); In the ARF-ARF tests the same CTD stood both as ARFCTD-FLucC and as ARFCTD-FLucN (FLucN, firefly luciferase aa 1-398, in place of FLucC); one molecule for both; also called ARF1CTD-FLucC; ARFCTD-FLucC; source: Arabidopsis mesophyll protoplasts, transfected, in living cells (SFLC) and in lysate (co-IP); not shown: FLucC …
T3 sequence (looked up): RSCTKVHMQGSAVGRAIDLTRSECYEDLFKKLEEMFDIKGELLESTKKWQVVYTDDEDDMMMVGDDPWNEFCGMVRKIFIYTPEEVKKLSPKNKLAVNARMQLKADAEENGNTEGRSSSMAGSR

[4] = molecular target: T4, IAA28-FLucC (Arabidopsis, UniProt Q9XFM0 1-175)
T4 construct: Arabidopsis Aux/IAA protein IAA28; also called Aux/IAA-FLucC; source: Arabidopsis mesophyll protoplasts, transfected, in living cells; not shown: FLucC (firefly luciferase aa 394-550)
T4 sequence (looked up): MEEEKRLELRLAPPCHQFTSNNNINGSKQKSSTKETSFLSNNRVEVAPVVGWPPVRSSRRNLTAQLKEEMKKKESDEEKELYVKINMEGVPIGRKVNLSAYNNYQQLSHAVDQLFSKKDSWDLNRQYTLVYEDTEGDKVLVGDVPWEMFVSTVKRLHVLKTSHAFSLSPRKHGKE

[5] = molecular target: T5, ARF18 C-terminal domain (CTD)-FLucC (Arabidopsis, UniProt Q9C5W9 489-602)
T5 construct: Arabidopsis auxin response factor 18, C-terminal dimerization domain (CTD); In the ARF-ARF tests the same CTD stood both as ARFCTD-FLucC and as ARFCTD-FLucN; one molecule for both; also called ARF18CTD-FLucC; ARFCTD-FLucC; source: Arabidopsis mesophyll protoplasts, transfected, in living cells; not shown: FLucC (firefly luciferase aa 394-550)
T5 sequence (looked up): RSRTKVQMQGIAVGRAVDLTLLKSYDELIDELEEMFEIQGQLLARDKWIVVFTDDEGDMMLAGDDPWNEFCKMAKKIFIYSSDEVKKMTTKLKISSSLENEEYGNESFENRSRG

Measured: relative luciferase activity (standardised against ARF5CTD-FLucC + IAA28-FLucN)

B1: MYB30-FLucN (natural protein, UniProt Q9SCU7 1-323, looked up)
chain: MVRPPCCDKGGVKKGPWTPEEDIILVTYIQEHGPGNWRAVPTNTGLLRCSKSCRLRWTNYLRPGIKRGNFTEHEEKMIVHLQALLGNRWAAIASYLPQRTDNDIKNYWNTHLKKKLNKVNQDSHQELDRSSLSSSPSSSSANSNSNISRGQWERRLQTDIHLAKKALSEALSPAVAPIITSTVTTTSSSAESRRSTSSASGFLRTQETSTTYASSTENIAKLLKGWVKNSPKTQNSADQIASTEVKEVIKSDDGKECAGAFQSFSEFDHSYQQAGVSPDHETKPDITGCCSNQSQWSLFEKWLFEDSGGQIGDILLDENTNFF
notes: transcription factor MYB30, the unrelated protein used as negative control; source: Arabidopsis mesophyll protoplasts, transfected, in living cells; not shown: FLucN (firefly luciferase aa 1-398)
< 0.1: all assays above
